The term Kd denotes the constant that tells how readily two partners part at equilibrium. High values mean lower affinity, low ones higher affinity. One may read the koff as the rate constant with which the complex falls apart. The low end stands for slow dissociation, the high end for fast dissociation. The term kon denotes the rate constant with which the complex forms. Low readings indicate slower complex formation, high ones faster complex formation. One may read the stoichiometry N as the number of molecules, sites or subunits per partner or assembly.

Experiment [1] has as its target T1, apo-transferrin (human, UniProt P02787 20-698).
T1 construct: transferrin (serotransferrin), human, iron-free state; Several paragraphs and legends say only 'transferrin' where the text says apo-transferrin for the same panels; rows told of 'transferrin' alone are tied to this molecule; also called Tf; TRF; source: bought: Sigma (purity greater than 98%)
In words: SPR. As to conditions: plateau of the association phase, read off a plot.

The target of a further experiment is human α-thrombin (human) (UniProt P00734).
The target of experiment [2] is T1, apo-transferrin. The experiment in a line: SPR; CM5 chip coupled with 100 RU of transferrin; binding molar ratio from the saturation RU of the flowing phase and the RU of the immobilised phase. The following applies: for stoichiometry N: both partners purified.
Experiment [3] deals with T1, apo-transferrin. In words: SPR; BIAcore 2000; apo-transferrin or holo-transferrin immobilised on a CM5 chip (~2000 RU); serial concentrations of thrombin, FXIIa, fibrinogen, AT, prothrombin or FXII in Tris–HCl buffer (20 mM, pH 7.4) at 10 μL/min. On the technique in general: In SPR one partner is held on a chip, and binding of the other changes the refractive index at the surface.

For experiment [4], the target named is T1, apo-transferrin. The experiment in a line: SPR; transferrin with synthetic peptides (TH16, FX18, RCL19 and their scrambled controls). As to conditions: both partners purified.

In the case of “wild-type thrombin (from UniProt P00734) R117A; R122A”, the response is 2.5 RU with apo-transferrin [1] (25 nM trace, parent: est. 9) and 5.5 RU with apo-transferrin [1] (50 nM trace, parent: est. 14).

For “apo-transferrin (from UniProt P02787 20-698) (natural protein)”, in the experiment with human α-thrombin (human), the enhancement of the enzymatic activity of thrombin (chromogenic substrate) by transferrin at 0.2, 1 and 5 μM stood at 1.8 fold; the increase of fibrinopeptide A released from fibrinogen by thrombin after 30 min with transferrin at 0.2, 1 and 5 μM (RP-HPLC) stood at 1.2 fold; the increase of fibrinopeptide B released from fibrinogen by thrombin after 30 min with transferrin at 0.2, 1 and 5 μM (RP-HPLC) was found to be 4.2 fold.

For “human α-thrombin (from UniProt P00734 364-622) (enzyme)”, the stoichiometry N (transferrin per thrombin (molar ratio)) with apo-transferrin [2] is 1. Also, the equilibrium dissociation constant (Kd) with apo-transferrin [3] was determined as 0.0077 µM.

In the experiment with apo-transferrin [3], FXII (natural protein) gave a Kd of 0.04 µM, an off-rate (koff) of 0.0012 s⁻¹ and a kon of 30000 M⁻¹ s⁻¹.

B1: TH16 (peptide)
peptide: RIGKHSRTRYERNIEK
notes: source: synthetic peptide
For the molecule B1, in the experiment with apo-transferrin [4], binding was characterised by a dissociation constant (Kd) of 0.097 µM, the dissociation rate constant (koff) came to 0.0003 s⁻¹ and the association rate constant (kon) turned out to be 3100 M⁻¹ s⁻¹.

B2: RCL19 (peptide)
peptide: EAAASTAVVIAGRSLNPNR
notes: from the reactive center loop (RCL) of antithrombin; also called synthetic peptide from the RCL of AT; source: synthetic peptide
As for B2, in the experiment with apo-transferrin [4], the dissociation constant Kd was 0.556 µM, the dissociation rate constant (koff) worked out at 0.001 s⁻¹ and the association rate constant (kon) turned out to be 1800 M⁻¹ s⁻¹.

B3: human α-FXIIa (enzyme)
chain 1: IPPWEAPKEHKYKAEEHTVVLTVTGEPCHFPFQYHRQLYHKCTHKGRPGPQPWCATTPNFDQDQRWGYCLEPKKVKDHCSKHSPCQKGGTCVNMPSGPHCLCPQHLTGNHCQKEKCFEPQLLRFFHKNEIWYRTEQAAVARCQCKGPDAHCQRLASQACRTNPCLHGGRCLEVEGHRLCHCPVGYTGAFCDVDTKASCYDGRGLSYRGLARTTLSGAPCQPWASEATYRNVTAEQARNWGLGGHAFCRNPDNDIRPWCFVLNRDRLSWEYCDLAQCQTPTQAAPPTPVSPRLHVPLMPAQPAPPKPQPTTRTPPQSQTPGALPAKREQPPSLTRNGPLSCGQRLRKSLSSMTR
chain 2: VVGGLVALRGAHPYIAALYWGHSFCAGSLIAPCWVLTAAHCLQDRPAPEDLTVVLGQERRNHSCEPCQTLAVRSYRLHEAFSPVSYQHDLALLRLQEDADGSCALLSPYVQPVCLPSGAARPSETTLCQVAGWGHQFEGAEEYASFLQEAQVPFLSLERCSAPDVHGSSILPGMLCAGFLEGGTDACQGDSGGPLVCEDQAAERRLTLQGIISWGSGCGDRNKPGVYTDVAYYLAWIREHTVS
notes: factor XIIa heavy chain, cut product of human factor XII; factor XIIa light chain (protease domain), cut product of human factor XII; also called factor XIIa; source: bought: Enzyme Research Laboratories (HFXIIa 1212a)
For the molecule B3, in the experiment with apo-transferrin [2], the “stoichiometry N” value is 1 transferrin per FXIIa (molar ratio). In the experiment with apo-transferrin [3] (both partners purified), this molecule showed an equilibrium dissociation constant (Kd) of 0.0139 µM, a koff of 0.0025 s⁻¹ and a kon of 180000 M⁻¹ s⁻¹.

B4: FX18 (peptide)
peptide: RRNHSCEPCQTLAVRSYR
notes: source: synthetic peptide
With B4, in the experiment with apo-transferrin [4], the dissociation constant Kd was found to be 0.143 µM, the off-rate constant (koff) came to 0.0004 s⁻¹ and the association rate constant (kon) stood at 2800 M⁻¹ s⁻¹.

B5: fibrinogen (natural protein)
chain 1: ADSGEGDFLAEGGGVRGPRVVERHQSACKDSDWPFCSDEDWNYKCPSGCRMKGLIDEVNQDFTNRINKLKNSLFEYQKNNKDSHSLTTNIMEILRGDFSSANNRDNTYNRVSEDLRSRIEVLKRKVIEKVQHIQLLQKNVRAQLVDMKRLEVDIDIKIRSCRGSCSRALAREVDLKDYEDQQKQLEQVIAKDLLPSRDRQHLPLIKMKPVPDLVPGNFKSQLQKVPPEWKALTDMPQMRMELERPGGNEITRGGSTSYGTGSETESPRNPSSAGSWNSGSSGPGSTGNRNPGSSGTGGTATWKPGSSGPGSTGSWNSGSSGTGSTGNQNPGSPRPGSTGTWNPGSSERGSAGHWTSESSVSGSTGQWHSESGSFRPDSPGSGNARPNNPDWGTFEEVSGNVSPGTRREYHTEKLVTSKGDKELRTGKEKVTSGSTTTTRRSCSKTVTKTVIGPDGHKEVTKEVVTSEDGSDCPEAMDLGTLSGIGTLDGFRHRHPDEAAFFDTASTGKTFPGFFSPMLGEFVSETESRGSESGIFTNTKESSSHHPGIAEFPSRGKSSSYSKQFTSSTSYNRGDSTFESKSYKMADEAGSEADHEGTHSTKRGHAKSRPVRGIHTSPLGKPSLSP
chain 2: QGVNDNEEGFFSARGHRPLDKKREEAPSLRPAPPPISGGGYRARPAKAAATQKKVERKAPDAGGCLHADPDLGVLCPTGCQLQEALLQQERPIRNSVDELNNNVEAVSQTSSSSFQYMYLLKDLWQKRQKQVKDNENVVNEYSSELEKHQLYIDETVNSNIPTNLRVLRSILENLRSKIQKLESDVSAQMEYCRTPCTVSCNIPVVSGKECEEIIRKGGETSEMYLIQPDSSVKPYRVYCDMNTENGGWTVIQNRQDGSVDFGRKWDPYKQGFGNVATNTDGKNYCGLPGEYWLGNDKISQLTRMGPTELLIEMEDWKGDKVKAHYGGFTVQNEANKYQISVNKYRGTAGNALMDGASQLMGENRTMTIHNGMFFSTYDRDNDGWLTSDPRKQCSKEDGGGWWYNRCHAANPNGRYYWGGQYTWDMAKHGTDDGVVWMNWKGSWYSMRKMSMKIRPFFPQQ
chain 3: YVATRDNCCILDERFGSYCPTTCGIADFLSTYQTKVDKDLQSLEDILHQVENKTSEVKQLIKAIQLTYNPDESSKPNMIDAATLKSRKMLEEIMKYEASILTHDSSIRYLQEIYNSNNQKIVNLKEKVAQLEAQCQEPCKDTVQIHDITGKDCQDIANKGAKQSGLYFIKPLKANQQFLVYCEIDGSGNGWTVFQKRLDGSVDFKKNWIQYKEGFGHLSPTGTTEFWLGNEKIHLISTQSAIPYALRVELEDWNGRTSTADYAMFKVGPEADKYRLTYAYFAGGDAGDAFDGFDFGDDPSDKFFTSHNGMQFSTWDNDNDKFEGNCAEQDGSGWWMNKCHAGHLNGVYYQGGTYSKASTPNGYDNGIIWATWKTRWYSMKKTTMKIIPFNRLTIGEGQQHHLGGAKQAGDV
notes: fibrinogen alpha chain; fibrinogen beta chain; fibrinogen gamma chain; the SPR and native gel methods say only 'fibrinogen'; also called factor I; source: bought: Cayman (16088); copies: + +
B5: in the experiment with apo-transferrin [2], the “stoichiometry N” value is 4 apo-transferrin per fibrinogen (molar ratio).

The values above are taken from PMC7015052, “Transferrin plays a central role in coagulation balance by interacting with clotting factors” (Cell Research, 2019).
